# Residue numbers refer to the chain shown, from its start.
# B1: H8L3 (antibody, human IgG1, V domains shown)
# VH: QVQLVESGGGVVQPGRSLRLSCAASGYSFTGYTMNWVRQAPGNGLEWVARINPHNGGTDYNQKFKDRFTISRDNSKNTLYLQMNSLRAEDTAVYYCARGYYYYSLDYWGQGTTVTVSS
# VL: EIVLTQSPDFQSVTPKEKVTITCSASSSIRYIHWYQQRPDQSPKLLIYDTSNLASGVPSRFSGSGSGTDFTLTINSLEAEDAATYYCHQRNSYPWTFGQGTKVEIK
# notes: humanized; also called hu128.1
# B2: H8L4 (antibody, human IgG1, V domains shown)
# VH: B1 VH
# VL: EIVLTQSPATLSVSPGERATLSCSASSSIRYIHWYQQRPGQAPRLLIYDTSNLASGIPARFSGSGSGTDFTLTISSLEPEDFAVYYCHQRNSYPWTFGPGTKVDIK
# notes: as for B1
# B3: H8L2 (antibody, human IgG1, V domains shown)
# VH: B1 VH
# VL: B2 VL with I57T, P99Q, D104E
# notes: as for B1
# B4: H8L1 (antibody, human IgG1, V domains shown)
# VH: B1 VH
# VL: B2 VL with V13L, R38K, I57T, P99Q, D104E
# notes: as for B1
# B5: H8L8 (antibody, human IgG1, V domains shown)
# VH: B1 VH
# VL: B1 VL with L45R, L46W, D69S, F70Y, T71S
# notes: as for B1
# B6: H8L6 (antibody, human IgG1, V domains shown)
# VH: B1 VH
# VL: B1 VL with L45R, L46W, D69S, F70Y, T71S, H88Q
# notes: as for B1
# B7: H8L7 (antibody, human IgG1, V domains shown)
# VH: B1 VH
# VL: B2 VL with V13L, R38K, L45R, L46W, I57T, D69S, F70Y, T71S, P99Q, D104E
# notes: as for B1
# B8: H6L8 (antibody, human IgG1, V domains shown)
# VH: EVQLVQSGAEVKKPGESLKISCKGSGYSFTGYTMNWVRQMPGKGLEWMGRINPHNGGTDYNQKFKDQVTISADKSISTAYLQWSSLKASDTAMYYCARGYYYYSLDYWGQGTLVTVSS
# VL: B1 VL with L45R, L46W, D69S, F70Y, T71S
# notes: as for B1
# B9: H6L11 (antibody, human IgG1, V domains shown)
# VH: B8 VH
# VL: B2 VL with V13L, R38K, I57T, D69S, F70Y, T71S, P99Q, D104E
# notes: as for B1
# B10: H6L6 (antibody, human IgG1, V domains shown)
# VH: B8 VH
# VL: B1 VL with L45R, L46W, D69S, F70Y, T71S, H88Q
# notes: as for B1
# B11: H6L12 (antibody, human IgG1, V domains shown)
# VH: B8 VH
# VL: B1 VL with D69S, F70Y, T71S
# notes: as for B1
# B12: H6L5 (antibody, human IgG1, V domains shown)
# VH: B8 VH
# VL: EIVLTQSPATLSLSPGERATLSCSASSSIRYIHWYQQKPGQAPRRWIYDTSNLASGTPARFSGSGSGTSYSLTISSLEPEDFAVYYCQQRNSYPWTFGQGTKVEIK
# notes: as for B1
# B13: H8L5 (antibody, human IgG1, V domains shown)
# VH: B1 VH
# VL: B12 VL
# notes: as for B1
# B14: H6L10 (antibody, human IgG1, V domains shown)
# VH: B8 VH
# VL: B1 VL with L45R, L46W
# notes: as for B1
# B15: H8L10 (antibody, human IgG1, V domains shown)
# VH: B1 VH
# VL: B1 VL with L45R, L46W
# notes: as for B1
# B16: H6L7 (antibody, human IgG1, V domains shown)
# VH: B8 VH
# VL: B12 VL with Q88H
# notes: as for B1
# B17: H8L9 (antibody, human IgG1, V domains shown)
# VH: B1 VH
# VL: B12 VL with S69D, Y70F, S71T, Q88H
# notes: as for B1
# B18: H6L9 (antibody, human IgG1, V domains shown)
# VH: B8 VH
# VL: B12 VL with S69D, Y70F, S71T, Q88H
# notes: as for B1
# B19: ch128.1 (antibody, human IgG1, V domains shown)
# VH: EVQLQQSGPELVKPGASMKISCKASGYSFTGYTMNWVKQSHGENLEWIGRINPHNGGTDYNQKFKDKAPLTVDKSSNTAYMELLSLTSGDSAVYYCARGYYYYSLDYWGQGTSVTVSS
# VL: QIVLTQSPAIMSVSPGEKVTMTCSASSSIRYIHWYQQRPGTSPKRWIYDTSNLASGVPARFSGSGSGTSYSLTISSMEAEDAATYYCHQRNSYPWTFGGGTRLEIR
# notes: mouse 128.1 V regions; also called chimeric antibody; parental chimeric antibody
# Molecular target: TfR1 (antigen; form in the assay not stated) (human, UniProt P02786 89-760, limits assumed)
# Sequence (P02786 89-760 limits assumed): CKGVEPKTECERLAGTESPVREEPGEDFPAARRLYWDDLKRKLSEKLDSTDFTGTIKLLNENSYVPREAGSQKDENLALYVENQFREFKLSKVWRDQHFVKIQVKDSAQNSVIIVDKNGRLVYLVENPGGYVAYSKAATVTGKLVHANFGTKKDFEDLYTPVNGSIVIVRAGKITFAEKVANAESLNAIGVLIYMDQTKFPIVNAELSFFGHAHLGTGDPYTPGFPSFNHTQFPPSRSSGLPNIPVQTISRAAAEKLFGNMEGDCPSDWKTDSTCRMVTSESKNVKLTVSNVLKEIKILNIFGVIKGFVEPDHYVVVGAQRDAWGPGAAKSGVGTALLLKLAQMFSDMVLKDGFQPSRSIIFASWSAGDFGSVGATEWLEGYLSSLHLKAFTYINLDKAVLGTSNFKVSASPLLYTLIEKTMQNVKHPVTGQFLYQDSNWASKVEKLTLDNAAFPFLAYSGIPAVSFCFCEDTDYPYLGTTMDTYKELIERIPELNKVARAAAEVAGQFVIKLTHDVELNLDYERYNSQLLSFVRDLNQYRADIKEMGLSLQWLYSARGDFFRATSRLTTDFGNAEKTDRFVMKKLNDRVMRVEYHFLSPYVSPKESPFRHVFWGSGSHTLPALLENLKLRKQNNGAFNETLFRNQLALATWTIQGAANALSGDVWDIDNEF
# Test: assay not named in the sentence (ELISA and flow cytometry per paragraph 218)
row,binding result,Binder
1,no binding,B1
2,no binding,B2
3,no binding,B3
4,no binding,B4

# Molecular target: T1, soluble human TfR1 (sCD71) (human, UniProt P02786 89-760)
# T1 construct: extracellular domain; Two sources (Cal Tech, Kerafast) are kept as one molecule; also called Human sCD71; transferrin receptor 1
# T1 sequence (P02786 89-760): as the sequence (P02786 89-760 limits assumed) above
# Test: ELISA, soluble human TfR1; semi-quantitative grade
row,binding result,Binder
1,binds,B5
2,binds,B6
3,binds,B7
4,binds,B8
5,binds,B9
6,binds,B10
7,binds,B11
8,binds,B12
9,binds,B13
10,binds,B14

# Molecular target: T2, cynomolgus monkey (Macaca fascicularis) soluble TfR1 (sCD71) (cynomolgus monkey (Macaca fascicularis), UniProt H9EXL1 89-760 (rhesus entry))
# T2 construct: extracellular domain; also called cynomolgus monkey TfR1; cynomolgus monkey sCD71
# T2 sequence (chain, as listed by the source): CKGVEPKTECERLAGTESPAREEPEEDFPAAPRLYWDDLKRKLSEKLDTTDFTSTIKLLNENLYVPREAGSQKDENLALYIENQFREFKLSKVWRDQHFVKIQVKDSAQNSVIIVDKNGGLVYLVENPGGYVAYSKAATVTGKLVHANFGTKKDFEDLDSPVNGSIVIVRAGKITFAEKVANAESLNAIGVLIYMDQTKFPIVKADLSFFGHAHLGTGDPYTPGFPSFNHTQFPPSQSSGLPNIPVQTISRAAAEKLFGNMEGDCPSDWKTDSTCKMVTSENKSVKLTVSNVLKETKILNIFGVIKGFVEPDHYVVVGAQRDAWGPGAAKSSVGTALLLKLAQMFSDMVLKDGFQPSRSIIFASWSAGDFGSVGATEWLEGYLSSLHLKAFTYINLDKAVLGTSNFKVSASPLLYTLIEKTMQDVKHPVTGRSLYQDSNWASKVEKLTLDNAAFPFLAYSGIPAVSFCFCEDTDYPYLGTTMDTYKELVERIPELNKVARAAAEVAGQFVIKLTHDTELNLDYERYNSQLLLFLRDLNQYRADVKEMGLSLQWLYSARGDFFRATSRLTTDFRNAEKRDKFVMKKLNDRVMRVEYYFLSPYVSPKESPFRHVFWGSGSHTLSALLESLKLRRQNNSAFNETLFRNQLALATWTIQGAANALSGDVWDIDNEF
# Test: ELISA, plate coated with soluble cynomolgus monkey TfR1 (Sino Biological), 2-fold antibody dilutions, AP anti-human kappa detection, A405
# Procedure: (§1) Immulon-H2B plates (Thermo Fisher Scientific, Inc.) were coated overnight at 4° C. with soluble 5 μg/mL TfR1 (sCD71) in 50 mM carbonate/bicarbonate buffer, pH 9.3. Human sCD71 was obtained from either Cal Tech (California Institute of Technology, Pasadena, CA, USA) or Kerafast, Inc., while cynomolgus monkey (Macaca fascicularis) sCD71 was purchased from Sino Biological, Inc. (Wayne, PA, USA). Plates were washed with PBS and blocked with 3% BSA in PBS. Serial 2-fold dilutions of antibodies (200-3.12 ng/mL) were added to the plate in duplicates and incubated overnight at 4° C. Binding was detected with an AP-conjugated goat anti-human κ antibody (MilliporeSigma) and AP substrate, p-nitrophenyl phosphate disodium (MilliporeSigma), dissolved in diethanolamine buffer (9.6% diethanolamine (v/v), 0.24 mM MgCl₂ in water, pH 9.8). Plates were read at absorbance 405 nm using a FilterMax F5 multi-mode microplate reader (Molecular Devices, Sunnyvale, CA, USA).
row,EC50 (read off the curve) [µg/mL],Binder
1,~0.04,B15
2,~0.03,B16
3,~0.04,B17
4,~0.03,B18
5,~0.03,B19

# Molecular target: T3, human TfR1 on the cell surface (KMS-11 or MM.1S human MM cells) (human, UniProt P02786 1-760)
# T3 construct: whole, on cells; also called human cells expressing the TfR1; CD71
# T3 sequence (P02786 whole entry): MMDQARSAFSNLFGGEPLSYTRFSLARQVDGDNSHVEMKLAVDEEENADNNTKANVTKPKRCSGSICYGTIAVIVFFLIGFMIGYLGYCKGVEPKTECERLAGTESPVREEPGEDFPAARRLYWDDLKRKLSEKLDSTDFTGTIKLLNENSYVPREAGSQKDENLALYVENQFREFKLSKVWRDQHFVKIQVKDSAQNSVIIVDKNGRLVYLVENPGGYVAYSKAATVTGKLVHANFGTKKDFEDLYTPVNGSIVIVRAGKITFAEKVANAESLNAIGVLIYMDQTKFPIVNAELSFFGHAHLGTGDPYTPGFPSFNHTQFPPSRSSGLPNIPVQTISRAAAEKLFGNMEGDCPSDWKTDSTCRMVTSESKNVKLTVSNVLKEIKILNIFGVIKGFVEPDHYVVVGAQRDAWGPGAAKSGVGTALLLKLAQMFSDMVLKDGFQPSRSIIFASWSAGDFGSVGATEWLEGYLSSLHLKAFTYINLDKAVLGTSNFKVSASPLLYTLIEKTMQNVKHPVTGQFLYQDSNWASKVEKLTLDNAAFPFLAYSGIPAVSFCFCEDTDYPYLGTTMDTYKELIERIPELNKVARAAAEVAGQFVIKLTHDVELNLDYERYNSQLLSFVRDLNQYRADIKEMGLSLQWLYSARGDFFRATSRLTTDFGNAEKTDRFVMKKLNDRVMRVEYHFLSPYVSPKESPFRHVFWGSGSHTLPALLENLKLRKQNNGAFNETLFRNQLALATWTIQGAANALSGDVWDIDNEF
# Test: flow cytometry on KMS-11 cells; semi-quantitative grade
# Procedure: (§2) KMS-11 cells (Namba et al., In Vitro Cell. Dev. Biol. 25(8):723-729 (1989)), a kind gift from Dr. Lawrence Boise (Emory University, Atlanta, GA, USA), and MM.1S cells (Greenstein et al., Exp. Hematol., 31(4):271-282 (2003)), purchased from the American Type Culture Collection (ATCC, Manassas, VA, USA; ATCC® CRL-2974T”) human MM cells were incubated with 2 μg of humanized antibodies or the control antibodies (ch128.1 as a positive control or a negative isotype control IgG1) for 2 hours on ice. Binding was detected using a PE-conjugated anti-human κ antibody. Samples were analyzed on an LSRII analytical flow cytometer (BD Biosciences, San Jose, CA, USA) and 10,000 events were collected. Histograms were created using the […] Version 3 (De Novo Software, Glendale, CA, USA).
row,binding result,Binder
1,binds,B5
2,binds,B6
3,binds,B7
4,binds,B8
5,binds,B9
6,binds,B10
7,binds,B11
8,binds,B12
9,binds,B13
10,binds,B14

# Molecular target: T3, human TfR1 on the cell surface (KMS-11 …)
# Test: flow cytometry on MM.1S cells, 2 ug antibody, PE anti-human kappa detection
# Procedure: as §2
row,binding result,Binder
1,binds,B15
2,binds,B16
3,binds,B17
4,binds,B18
5,binds,B19

# Molecular target: T1, soluble human TfR1 (sCD71)
# Test: ELISA, plate coated with soluble human TfR1 (Kerafast), 2-fold antibody dilutions, AP anti-human kappa detection, A405
# Procedure: as §1
row,binding result,Binder
1,binds,B15
2,binds,B16
3,binds,B17
4,binds,B18

# From US20260209376A1 (University of California, published 2026)
